# Results taken from publication PMC11551393 (Proceedings of the National Academy of Sciences of the …, 2024).
# T1: Bdf1(372-554) (in the fused complex for cryo-EM) (S. pombe, UniProt Q9Y7N0 372-554)
# T1 sequence (looked up): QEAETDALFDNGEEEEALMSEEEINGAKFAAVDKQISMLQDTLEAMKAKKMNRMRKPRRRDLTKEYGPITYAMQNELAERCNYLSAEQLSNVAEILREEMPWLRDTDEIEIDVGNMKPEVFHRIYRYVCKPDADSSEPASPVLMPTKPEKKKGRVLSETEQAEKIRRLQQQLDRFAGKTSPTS
# What was measured:
# [1] = molecular target: T1, Bdf1(372-554) (in the fused complex for …); experiment: cryo-EM structure
# [2] = molecular target: the molecule itself; experiment: cryo-EM structure
binder,measurement,setting,value
"Tdk1(211-357) (in the fused complex for cryo-EM) (domain or fragment, S. pombe, UniProt O74876 211-357, looked up) MDEWRKSTDEWRKSTDERLENLLNIVREILDVQRDMRNDLSNLTRKVDRMDMRLSRNNNMIMRSFAQPITEVPFFNGDIPDPNLPRITRIEDIDSLSEENCTRYLKGYGVSYDENDQSLWKRQLAKAVGLTAAYDESYTFSPFSSSE",binding result,[1],binds
same,stoichiometry N,[2],6
